Laboratory results published in US20160000865A1 (REGENTS OF THE UNIVERSITY OF MICHIGAN, published 2016).
Each block holds one binder with its values, some of them ahead of it.

B5: Endogenous Robo1 of mouse small intestinal crypts (receptor, UniProt O89026 20-1612, looked up)
chain: SRLRQEDFPPRIVEHPSDLIVSKGEPATLNCKAEGRPTPTIEWYKGGERVETDKDDPRSHRMLLPSGSLFFLRIVHGRKSRPDEGVYICVARNYLGEAVSHNASLEVAILRDDFRQNPSDVMVAVGEPAVMECQPPRGHPEPTISWKKDGSPLDDKDERITIRGGKLMITYTRKSDAGKYVCVGTNMVGERESEVAELTVLERPSFVKRPSNLAVTVDDSAEFKCEARGDPVPTVRWRKDDGELPKSRYEIRDDHTLKIRKVTAGDMGSYTCVAENMVGKAEASATLTVQEPPHFVVKPRDQVVALGRTVTFQCEATGNPQPAIFWRREGSQNLLFSYQPPQSSSRFSVSQTGDLTITNVQRSDVGYYICQTLNVAGSIITKAYLEVTDVIADRPPPVIRQGPVNQTVAVDGTLILSCVATGSPAPTILWRKDGVLVSTQDSRIKQLESGVLQIRYAKLGDTGRYTCTASTPSGEATWSAYIEVQEFGVPVQPPRPTDPNLIPSAPSKPEVTDVSKNTVTLSWQPNLNSGATPTSYIIEAFSHASGSSWQTAAENVKTETFAIKGLKPNAIYLFLVRAANAYGISDPSQISDPVKTQDVPPTSQGVDHKQVQRELGNVVLHLHNPTILSSSSVEVHWTVDQQSQYIQGYKILYRPSGASHGESEWLVFEVRTPTKNSVVIPDLRKGVNYEIKARPFFNEFQGADSEIKFAKTLEEAPSAPPRSVTVSKNDGNGTAILVTWQPPPEDTQNGMVQEYKVWCLGNETKYHINKTVDGSTFSVVIPSLVPGIRYSVEVAASTGAGPGVKSEPQFIQLDSHGNPVSPEDQVSLAQQISDVVRQPAFIAGIGAACWIILMVFSIWLYRHRKKRNGLTSTYAGIRKVPSFTFTPTVTYQRGGEAVSSGGRPGLLNISEPATQPWLADTWPNTGNNHNDCSINCCTAGNGNSDSNLTTYSRPADCIANYNNQLDNKQTNLMLPESTVYGDVDLSNKINEMKTFNSPNLKDGRFVNPSGQPTPYATTQLIQANLSNNMNNGAGDSSEKHWKPPGQQKPEVAPIQYNIMEQNKLNKDYRANDTIPPTIPYNQSYDQNTGGSYNSSDRGSSTSGSQGHKKGARTPKAPKQGGMNWADLLPPPPAHPPPHSNSEEYNMSVDESYDQEMPCPVPPAPMYLQQDELQEEEDERGPTPPVRGAASSPAAVSYSHQSTATLTPSPQEELQPMLQDCPEDLGHMPHPPDRRRQPVSPPPPPRPISPPHTYGYISGPLVSDMDTDAPEEEEDEADMEVAKMQTRRLLLRGLEQTPASSVGDLESSVTGSMINGWGSASEEDNISSGRSSVSSSDGSFFTDADFAQAVAAAAEYAGLKVARRQMQDAAGRRHFHASQCPRPTSPVSTDSNMSAVVIQKARPAKKQKHQPGHLRREAYADDLPPPPVPPPAIKSPTVQSKAQLEVRPVMVPKLASIEARTDRSSDRKGGSYKGREALDGRQVTDLRTNPSDPREAQEQPNDGKGRGTRQPKRDLPPAKTHLGQEDILPYCRPTFPTSNNPRDPSSSSSMSSRGSGSRQREQANVGRRNMAEMQVLGGFERGDENNEELEETES
notes: also called native Robo1

Key:
[1] = molecular target: B5; assay: co-immunoprecipitation from mouse intestinal crypt lysates, immunoblot
Method: 293 cells were co-transfected with the plasmids of Robo1 or Robo1-dCC3 and LRP6. Transfected Robo1 was immunoprecipitated by the anti-HA Ab, followed by immunoblotting for LRP6 (myc) and Robo1 (HA). (L) LRP6 interacts with CC3. 293 cells transfected with the LRP6 plasmid were incubated with rCC0/1, rCC2 and rCC3. After washing, transfected LRP6 was immunoprecipitated by the anti-HA Ab, followed by immunoblotting for rCC0/1, rCC2 and rCC3 (His) and LRP6 (myc). (M) LRP6 M3 binds to CC3. The glutathione-Sepharose beads were incubated with the GST-M1-3. After washing, they were incubated with rCC3, followed by immunoblotting for rCC3 (His) and rGST-M1-3. (N and O) Transfected Robo1 enhances LRP6 binding to LGR5. 293 cells were co-transfected with the plasmids of LGR5 and LRP6, in the presence or absence of the Robo1 plasmid (N). Alternatively, 293 cells were co-transfected with the plasmids of LGR5, LRP6 and Robo1, followed by infection with Ad-GFP or Ad-CC3 (0). Lysates of these transfectants were immunoprecipitate for LRP6 (myc) and immunoblotted for LGR5 (flag), LRP6 (myc) and Robo1 (HA), respectively. (P) Endogenous Robo1 promotes LRP6 association with LGR5. […]
This example describes Rspo1 binds to extracellular Robo1. […] Indeed, the intestinal expression of Rspo1 was detected in the tissue sections of adult small intestine (FIG. 14). […]

[2] = molecular target: T1, Recombinant human Robo1 encoding the extracellular five Ig-like domains fused with the Fc domains of human … (human, UniProt Q9Y6N7 26-540; P01857 99-330 = IgG part); assay: Protein A bead pulldown, immunoblot for His
T1 construct: domain: extracellular five Ig domains (1-1621 bp);domain: Fc domains of human IgG1; also called Robo1-Fc; rRobo1-Fc
Method: (§1) To confirm our initial findings, various deletion mutants of Robo1 fused with hemagglutin (HA) tag were employed (FIG. 15B) (see, e.g., Wong, K., et al., (2001) Cell 107, 209-221). Recombinant human Rspo1 fused with 6-His (His) tag expressed in Sf9 insect cells (rRspo1; FIG. 15C and FIG. 17B) were also purified. […] Following incubation, immunoprecipitation was performed by the anti-HA Ab, followed by immunoblotting with the Abs for rRspo1 (His) and Robo1 (HA). […] Compared to human IgG (hIgG) bound Protein A (Pro-A) beads, recombinant Robo1-Fc chimera (rRobo1-Fc; FIG. 17C) bound Pro-A beads precipitated rRspo1 (His; FIG. 15E and FIG. 16C). Additionally, rRobo1-Fc bound Pro-A beads precipitated purified recombinant Rspo1-N (rRspo1-N), but not recombinant Rspo1-C (rRspo1-C; FIGS. 15C and F and FIGS. 16D and 17B). To determine which extracellular Ig domains of Robo1 could recognize Rspo1, recombinant extracellular Ig domains 1-5 of Robo1 fused with glutathione S-transferase were constructed, expressed and purified (GST-Ig1-5; FIG. 15B and FIG. 16D).

[3] = molecular target: T2, Recombinant human Rspo1 fused with 6-His (His) tag expressed in Sf9 insect cells (human, UniProt Q2MKA7 21-263); assay: glutathione-Sepharose pulldown, immunoblot
T2 construct: Baculovirus expression; also called rRspo1; R-spondin 1; not shown: 6-His tag
Method: as §1
For the pulldown assay, 3 μg of the appropriate purified GST-tagged fusion protein and isolated His-tagged fusion protein were incubated with 20 μl glutathione Sepharose beads (GE Healthcare Biosciences) in PBS containing 1% BSA at 4° C. for 2 h. […]

[4] = molecular target: T3, Native LRP6 of mouse small intestinal crypts (mouse, UniProt O88572 20-1613); assay: immunoprecipitation of endogenous Robo1 from crypt lysates of C57 small intestines, immunoblot (FIG. 15H)
T3 construct: also called endogenous LRP6; endogenous Lrp6
T3 sequence (O88572 20-1613 limits assumed): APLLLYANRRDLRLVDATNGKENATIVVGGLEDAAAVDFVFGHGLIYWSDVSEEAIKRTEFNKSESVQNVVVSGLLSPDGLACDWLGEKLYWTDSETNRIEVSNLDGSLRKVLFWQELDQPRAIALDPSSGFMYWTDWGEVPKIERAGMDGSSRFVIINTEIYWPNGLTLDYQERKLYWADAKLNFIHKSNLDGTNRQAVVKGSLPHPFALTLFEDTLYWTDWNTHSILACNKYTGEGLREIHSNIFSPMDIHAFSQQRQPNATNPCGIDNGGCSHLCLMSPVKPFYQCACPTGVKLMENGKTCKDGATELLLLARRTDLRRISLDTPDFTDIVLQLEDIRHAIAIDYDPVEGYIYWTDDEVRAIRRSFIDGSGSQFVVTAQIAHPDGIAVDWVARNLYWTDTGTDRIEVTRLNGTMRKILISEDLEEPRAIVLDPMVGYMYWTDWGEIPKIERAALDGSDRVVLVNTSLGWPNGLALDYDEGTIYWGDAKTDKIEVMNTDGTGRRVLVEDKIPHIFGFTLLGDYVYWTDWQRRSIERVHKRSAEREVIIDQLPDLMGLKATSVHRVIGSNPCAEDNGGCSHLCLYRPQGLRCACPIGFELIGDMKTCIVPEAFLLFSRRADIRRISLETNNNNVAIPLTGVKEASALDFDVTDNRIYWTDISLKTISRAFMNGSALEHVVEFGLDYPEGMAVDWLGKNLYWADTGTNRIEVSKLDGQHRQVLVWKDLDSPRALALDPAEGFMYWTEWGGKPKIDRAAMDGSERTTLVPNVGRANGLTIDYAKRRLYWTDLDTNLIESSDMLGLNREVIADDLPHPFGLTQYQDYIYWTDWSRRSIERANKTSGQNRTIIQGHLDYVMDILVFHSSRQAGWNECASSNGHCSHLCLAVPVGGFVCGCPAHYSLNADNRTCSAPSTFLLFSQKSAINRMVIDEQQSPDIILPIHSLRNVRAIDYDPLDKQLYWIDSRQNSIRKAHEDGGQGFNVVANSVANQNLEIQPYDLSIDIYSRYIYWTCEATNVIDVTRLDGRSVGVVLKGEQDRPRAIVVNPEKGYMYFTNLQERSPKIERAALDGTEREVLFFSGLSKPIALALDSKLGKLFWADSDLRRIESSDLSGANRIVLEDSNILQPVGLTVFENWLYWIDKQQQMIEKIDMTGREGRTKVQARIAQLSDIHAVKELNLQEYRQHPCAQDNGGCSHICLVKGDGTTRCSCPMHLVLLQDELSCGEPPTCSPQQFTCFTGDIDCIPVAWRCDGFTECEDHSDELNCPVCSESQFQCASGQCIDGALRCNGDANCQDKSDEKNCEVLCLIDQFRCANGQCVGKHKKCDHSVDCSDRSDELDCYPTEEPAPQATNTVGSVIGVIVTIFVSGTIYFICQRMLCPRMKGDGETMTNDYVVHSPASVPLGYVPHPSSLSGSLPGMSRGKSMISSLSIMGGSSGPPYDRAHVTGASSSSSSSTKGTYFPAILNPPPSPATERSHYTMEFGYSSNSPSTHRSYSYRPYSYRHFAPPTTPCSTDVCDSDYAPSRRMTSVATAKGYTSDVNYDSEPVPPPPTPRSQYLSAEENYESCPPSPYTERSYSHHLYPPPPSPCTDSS

T1 sequence (Q9Y6N7 other isoform, or with tags, fused parts or gaps limits assumed): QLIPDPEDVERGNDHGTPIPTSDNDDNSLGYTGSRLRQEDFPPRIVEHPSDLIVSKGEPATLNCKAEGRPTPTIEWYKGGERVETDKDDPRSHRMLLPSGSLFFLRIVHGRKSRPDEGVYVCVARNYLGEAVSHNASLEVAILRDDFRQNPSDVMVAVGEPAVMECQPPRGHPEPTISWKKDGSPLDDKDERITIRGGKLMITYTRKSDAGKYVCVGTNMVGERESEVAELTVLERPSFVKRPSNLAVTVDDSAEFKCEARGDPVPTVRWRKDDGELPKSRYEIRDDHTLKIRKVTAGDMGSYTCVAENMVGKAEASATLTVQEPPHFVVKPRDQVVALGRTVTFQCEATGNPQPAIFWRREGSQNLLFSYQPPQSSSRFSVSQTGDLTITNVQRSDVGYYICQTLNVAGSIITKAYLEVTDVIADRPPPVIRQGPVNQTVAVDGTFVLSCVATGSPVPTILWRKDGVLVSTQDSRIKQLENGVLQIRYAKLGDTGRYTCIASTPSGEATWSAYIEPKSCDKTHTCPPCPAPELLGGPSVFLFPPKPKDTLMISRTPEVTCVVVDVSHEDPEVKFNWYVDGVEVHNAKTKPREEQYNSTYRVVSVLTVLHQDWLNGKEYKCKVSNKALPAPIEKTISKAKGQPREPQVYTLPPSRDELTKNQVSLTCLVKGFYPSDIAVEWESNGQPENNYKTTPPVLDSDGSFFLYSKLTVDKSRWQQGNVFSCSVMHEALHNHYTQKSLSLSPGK

binding result [1]: binds
B1: Native Rspo1 of mouse small intestinal crypts (ligand, UniProt Q9Z132 21-265, looked up)
chain: SRGIKGKRQRRISAEGSQACAKGCELCSEVNGCLKCSPKLFILLERNDIRQVGVCLPSCPPGYFDARNPDMNKCIKCKIEHCEACFSHNFCTKCQEALYLHKGRCYPACPEGSTAANSTMECGSPAQCEMSEWSPWGPCSKKRKLCGFRKGSEERTRRVLHAPGGDHTTCSDTKETRKCTVRRTPCPEGQKRRKGGQGRRENANRHPARKNSKEPRSNSRRHKGQQQPQPGTTGPLTSVGPTWAQ

binding result [2]: no binding
B2: Carboxyl-terminal segment of Rspo1 including one TSR repeat, fused with 6-His tag (ligand, human, UniProt Q2MKA7 147-263, looked up)
chain: QCEMSEWSPWGPCSKKQQLCGFRRGSEERTRRVLHAPVGDHAACSDTKETRRCTVRRVPCPEGQKRRKGGQGRRENANRNLARKESKEAGAGSRRRKGQQQQQQQGTVGPLTSAGPA
notes: domain: carboxyl-terminus of Rspo1 containing one TSR repeat; also called rRspo1-C; Rspo1-C; not shown: 6-His tag of the PETM vector

Further lines, the binder ahead of its results:

B3: Extracellular Ig2 domain of Robo1 fused with GST (other, human, UniProt Q9Y6N7 170-257, looked up)
chain: DDFRQNPSDVMVAVGEPAVMECQPPRGHPEPTISWKKDGSPLDDKDERITIRGGKLMITYTRKSDAGKYVCVGTNMVGERESEVAELT
notes: domain: extracellular Ig2 domain; also called GST-Ig2; not shown: glutathione S-transferase of the PGEX6P1 vector
binding result [3]: no binding

B4: Extracellular Ig5 domain of Robo1 fused with GST (other, human, UniProt Q9Y6N7 455-541, looked up)
chain: PVIRQGPVNQTVAVDGTFVLSCVATGSPVPTILWRKDGVLVSTQDSRIKQLENGVLQIRYAKLGDTGRYTCIASTPSGEATWSAYIE
notes: domain: extracellular Ig5 domain; also called GST-Ig5; not shown: glutathione S-transferase of the PGEX6P1 vector
binding result [3]: no binding

Binder: B5
binding result [4]: binds
